Experimental data from the supplement of paper PMC10567573.

B1: ZNF449 (parent)
chain: YRHQRLHTGERPYECTVCKKRFTR

Variants of: B1
Test: protein stability index of a GFP-peptide fusion (GPS, HEK-293T) (PSI 1-6); higher = more stable
Details: c terminus: a fixed tail appended
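Note: lentivirally expressed fusions sorted by FACS into six bins by GFP to DsRed ratio, PSI derived from sequencing read proportions per bin multiplied by bin number.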

Protein stability index, by site and new letter:
H3: G 2.28; W 1.65; Y 1.81; A 1.89; S 2.35; P 2.68; N 2.69; M 2.14; C 2.4; Q 2.21; L 1.52; D 2.15; T 2.56; F 1.66; V 2.03
F22: R 3.19; Y 2.84; I 2.76; N 3.09; E 3.23; C 3.46; V 2.52; W 2.3; T 2.41; S 3.06; M 2.48; D 2.94
T8: K 2.19; I 2.41; V 2.29; L 1.97; C 2.4; P 2.52; Y 2.22; S 2.71; E 2.24; D 2.27; A 2.32; G 2.38; F 2.31
Y1: R 3.05; V 2.45; M 2.92; E 3.16; D 2.58; F 1.65; P 2.7; Q 2.88; K 2.77; H 2.98; T 2.65; N 2.35; A 3.22
E14: V 2.84; P 2.93; W 2.59; K 2.97; F 2.11; Q 2.54; C 2.57; G 2.42; H 2.52; Y 2.39; N 2.7; T 2.44
R11: V 1.85; G 2.71; L 2.09; T 2.1; S 2.43; M 1.79; I 2.22; N 2.1; W 2.2; F 2.68; K 2.59; E 2.08; H 2.43; Q 2.48
E10: I 2.32; V 2.4; L 2.13; T 2.48; D 2.28; F 2.35; H 2.88; M 1.91; Y 3.09; C 2.57; P 2.58; Q 2.54; W 2.34; K 2.15
V17: L 2.56; D 3.07; G 2.63; C 2.65; H 2.64; I 2.25; N 2.87; Q 2.47; R 2.55; A 2.48; M 2.21; P 3.17; E 2.37; K 3.69; S 2.5; F 2.37
Y13: S 2.08; C 3.74; G 2.55; R 2.32; P 2.35; D 2.11; I 2.09; V 2.21; H 2.69; M 2.69; Q 2.67; T 2.51; K 2.25; L 2.08
R5: W 2.29; A 2.08; G 2.31; N 2.21; T 1.69; S 2.24; P 2.08; Y 2.2; F 2.49; C 3.51; M 2.25; K 2.18; Q 2.61; H 3
T16: V 2.07; G 2.33; S 2.39; N 2.46; D 2.52; Y 2.75; C 2.09; I 2.34; E 2.25; F 2.14; P 2.22; K 2.78; R 2.51
C18: Q 3.27; G 3.37; E 3.48; V 3.48; L 2.6; F 2.38; A 3.39; D 3.24; N 3.43; P 3.45; R 3.65; S 3.38; K 3.77; I 3.15; M 2.56
R21: M 1.89; T 1.92; N 1.93; Q 1.98; H 2.56; G 1.96; L 2.02; V 2; I 1.9; W 2.18; S 1.65; P 2.46; E 2.39; K 2.15
K19: W 2.07; R 2.34; A 2.68; I 2.58; Q 2.57; S 1.74; T 2.77; V 2.3; D 1.96; G 2.15; N 2.19; C 2.12
R24: M 2.68; Q 2.31; H 2.11; F 2.57; E 2.78; I 2.14; K 3.32; W 1.87; L 2.39; V 2.51; D 2.6; Y 2.1; P 2.75; N 2.47; C 2.65
P12: Q 2.2; H 2.26; T 2.88; Y 2.62; E 2.38; R 2.98; A 2.54; N 2.71; L 2.22; S 2.34; F 2.19; M 2.32; I 2.1; C 2.37; W 2.44; V 2.87
H7: K 2.75; W 3.01; Q 2.53; I 2.16; A 2.17; M 1.97; T 2.35; F 1.46; G 2.14; Y 1.61; S 2.05; N 2.64; D 1.92; R 2.24
R2: K 2.32; I 2.65; Q 2.12; N 1.56; V 3.09; Y 2.38; M 2.33; W 1.57; C 2.66; E 2.65; D 2.48; G 2.92; S 2.76
K20: F 2.15; T 2.03; V 2.3; D 1.89; G 2.36; R 1.9; I 2.26; Q 2.29; E 2.1; A 1.95; N 2.1; W 1.61; S 2.08; C 2.2; M 2.25
T23: G 2.41; M 2.85; R 2.85; I 2.76; P 2.45; Y 2.78; L 2.71; V 2.36; D 2.21; A 2.93; H 2.78; E 2.67; K 2.54; N 2.28; W 2.13; F 2.62
L6: F 2.17; Q 2.38; E 2.09; W 2.38; P 2.4; K 2.34; V 2.17; C 3.06; A 2.77; S 2.38; D 2.37; Y 2.74; N 2.63; H 2.73; M 2.37; T 2.51
C15: H 3.33; S 3.02; T 2.88; W 3.07; V 2.85; A 3.02; D 3.51; M 2.98; I 2.55; Y 3.07; P 3.4; Q 3.91; G 3.7; N 3.44; K 3.42
G9: M 2.25; R 2.45; E 2.31; K 2.42; Y 2.1; S 2.33; T 2.23; D 2.35; C 3.86; Q 2.1; N 2.54; P 2.04
Q4: W 2.11; M 1.73; C 2.99; I 1.93; R 2.36; E 2.3; D 2.22; A 2.44; H 3.41; N 2.24; K 2.39
